# Data published in US20060040861A1, “Method of treating, preventing, and diagnosing prostate cancer” (priority 2004, published 2006).
# B1: f-adiponectin: Recombinant human full-length (non-proteolytic) adiponectin, about 30-kDa polypeptide; lot mainly HMW form (protein, UniProt Q15848 1-244, looked up)
# chain: MLLLGAVLLLLALPGHDQETTTQGPGVLLPLPKGACTGWMAGIPGHPGHNGAPGRDGRDGTPGEKGEKGDPGLIGPKGDIGETGVPGAEGPRGFPGIQGRKGEPGEGAYVYRSAFSVGLETYVTIPNMPIRFTKIFYNQQNHYDGSTGKFHCNIPGLYYFAYHITVYMKDVKVSLFKKDKAMLFTYDQYQENNVDQASGSVLLHLEVGDQVWLQVYGEGERNGLYADNDNDSTFTGFLLYHDTN
# modifications: full-length
# notes: Recombinant human full-length (non-proteolytic) adiponectin, about 30-kDa polypeptide; lot mainly HMW form
# Key:
# LNCaP-FGC cells = assay: [3H] thymidine incorporation assay; type: cell-based, human
# Description: DU145 (1.5×10^5/well), PC-3 (1.0×10^5/well) and LNCaP-FGC (2.0×10^5/well) cells were seeded into 24-well plates 24 hours before serum-starvation. Cells were deprived of serum for 48 hours, followed by incubation with leptin at indicated concentrations or 100 ng/ml IL-6 for 20 hours. In some experiments, cells were pretreated with SP600125 prior to cytokine stimulation as described below. Cells in each well were pulsed with 1 μCi of [^3H] thymidine (Amersham Pharmacia Biotech Inc., Piscataway, N.J., USA) during the final 5 hours, washed once with PBS, fixed with cold 5% trichloroacetic acid, solubilized with 0.25 M NaOH, and counted in scintillant. Each experiment was performed in quadruplicate, and the values are reported as mean±SD.
# DU145 cells = assay: MTT assay (cell growth / viability); type: cell-based, human; conditions: 5 days
# Description: DU145 (1×10^3/well), PC-3 (1×10^3/well) and LNCaP-FGC (1.5×10^3/well) cells were seeded in 96-well plates 24 hours prior to serum starvation. Cells were starved of serum for 24 hours and then incubated in the serum-free medium with or without 12.5 μg/ml leptin for 5 days. 3-(4,5-dimethylthiazol-2-yl)-2,5-diphenyl tetrazolium bromide (MTT) was added to each well to a concentration of 0.5 mg/ml. After 3-hour incubation at 37° C., cells were lysed in 50% dimethylformamide and 20% SDS at 37° C. Optical densities (O.D.) at 550 nm and 670 nm were measured by a plate reader, and differential O.D. between 550 nm and 670 nm (O.D. 550 nm minus O.D. 670 nm) were determined. Each experiment was performed in quadruplicate, and the values are reported as mean±SD.
# DU145 (0.5-1.0×10^3/well), PC-3 (0.5-1.0×10^3/well), and LNCaP FGC (0.75-1.5×10^3/well) cells were seeded in 96-well plates 24 hours prior to serum starvation. Cells were starved of serum for 24 hours and then incubated in the serum-free medium with or without cytokine(s), DHT and/or doxorubicin at indicated concentrations for 5 days. MTT was added to each well to a concentration of 0.5 mg/ml. After being incubated at 37° C. for 3 hours, cells were lysed in 50% dimethylformamide and 20% SDS at 37° C. Optical densities (OD) at 550 and 670 nm were measured by a plate reader, and differential OD between 550 and 670 nm (OD 550 minus OD 670 nm) were determined. Each experiment was performed in quadruplicate, and the values were reported as mean±S.D.
# Sucrose gradients were set up in 2.2-ml centrifuge tubes (Beckman Coulter, Inc., Fullerton, Calif.) by layering 5, 10, 15 and 20% (w/v) sucrose in velocity sedimentation buffer (10 mM HEPES, pH 8; 125 mM NaCl). Gradients were then equilibrated overnight at 4° C. Twenty micrograms of f-adiponectin in 200 μl of velocity sedimentation buffer containing 5 μl of HMW-Native protein marker kit (GE Healthcare, Piscataway, N.J.) set to 0.5 μg/μl albumin was overlayed onto the sucrose gradients and spun in a Beckman TLS-55 rotor at 55,000 rpm for 5 hours at 4° C. Fractions (150 μl each) were sequentially collected from the top to the bottom; aliquots were removed and used immediately in the MTT assay. The remaining material was stored at −80° C. for Western blot analysis with anti-adiponectin antibody and SDS-PAGE with silver staining. For the MTT assay, DU145 cells (0.5×1 03/well) were serum-starved and incubated in triplicate in 60 μl of the serum-free medium plus 30 μl of each fraction. For Western blot analysis, 0.5 μl of each fraction was electrophoresed on a 10% SDS-polyacrylamide gel and electrotransferred to a polyvinylidene difluoride membrane. The membrane was washed, blocked, and hybridized with the anti-adiponectin antibody. Bands were visualized using a Lumiglo reagent (Cell Signaling Technology, Inc., Beverly, Mass.). For SDS-PAGE, 20 μl of each fraction was electrophoresed on a 10% SDS-polyacrylamide gel, followed by silver staining using the Silver Stain kit (Bio-Rad Laboratories, Inc., Hercules, Calif.) to visualize molecular weight markers.
# STAT3 = assay: Electromobility shift assay (EMSA) of STAT3 DNA binding; type: cell-based, human
# Description: (§1) Seventy-percent confluent cells were deprived of serum for 24 hours, followed by treatment with 1 μg/ml f- or g-adiponectin or 10 μg/ml anisomycin for indicated periods. After being rinsed with cold phosphate-buffered saline, cells were harvested using a scraper and collected by centrifugation at 700×g for 10 minutes at 4° C. The cell pellets were then homogenized in cell lysis buffer (20 mM HEPES, pH 7.9, 300 mM NaCl, 1 mM Na3VO4, 1 μg/ml leupeptin, 5 μg/ml aprotinin, 1 μg/ml pepstatin, and 1 mM phenylmethylsulfonyl fluoride) and rocked gently for 30 minutes at 4° C. The homogenates were centrifuged at 15,000×g for 5 minutes at 4° C., and the supernatants were saved as cell lysates and stored at −80° C. until use.
# The EMSA was performed as described previously (Y. Iwamoto, et al., J. Biol. Chem. 273:18198-18204, 1998). Cell lysates containing 10 μg of protein were subjected to the assay with ^32P-end-labeled, double-stranded oligonucleotide M67-SIE (forward: 5′[…]-3′ and reverse: 5′-[…]-3′) as a probe. The supershift assay was carried out to confirm the STAT3-DNA complex using anti-STAT3 antibody.
# c-Jun = assay: Western blot analysis of c-Jun phosphorylation in C2C12 myoblasts; type: cell-based, murine; conditions: 1.0 μg/ml
# Description: as §1
# Cell lysates (100 μg of protein) were electrophoresed on 10% SDS-polyacrylamide gels and transferred to polyvinylidene difluoride membranes. After being washed and blocked, the membranes were hybridized with anti-phospho-c-Jun (Ser-63 or Ser-73) polyclonal antibody that specifically detects phosphorylated c-Jun molecules. The membranes were then stripped and re-hybridized with anti-c-Jun antibody that recognizes both phosphorylated and unphosphorylated c-Jun molecules to normalize sample variations.
Molecule,"cell proliferation on co-treatment with leptin and IGF-I (LNCaP-FGC cells; 12.5 μg/ml leptin with 100 ng/ml IGF-I, 20 hours)","effect on the IL-6-induced inhibition of cell proliferation (LNCaP-FGC cells; 12.5 μg/ml leptin with 100 ng/ml IL-6, 20 hours)","[3H] thymidine incorporation (cell proliferation), cytokine alone (LNCaP-FGC cells; serum-deprived, leptin up to 12.5 μg/ml, IL-6 100 ng/ml or IGF-I 100 ng/ml, 20 hours)","cell growth (MTT), leptin together with IGF-I (DU145 cells; 12.5 μg/ml leptin and 100 ng/ml IGF-I, absence of androgen)","living cells (MTT) (DU145 cells; 12.5 μg/ml leptin, serum-free)","effect on the leptin and/or IGF-I stimulation of cell growth (MTT) (DU145 cells; 1 μg/ml f-adiponectin, 12.5 μg/ml leptin and/or 100 ng/ml IGF-I)",effect on the conditioned medium stimulation of cell growth (MTT) (DU145 cells; 1 μg/ml f-adiponectin),effect on the doxorubicin suppression of cell growth (MTT) (DU145 cells; 1 μg/ml f-adiponectin),cell growth (MTT) at concentrations up to 1 μg/ml (DU145 cells; serum-free),concentration at which the inhibitory effect on cell growth saturated (DU145 cells; MTT),"constitutive STAT3 activation (STAT3 DNA binding activity) (STAT3; DU145 and HepG2 cells, 1.0 μg/ml, up to 60 minutes)","STAT3 activation (STAT3; the other cell lines (PC-3, LNCaP-FGC, C2C12), data not shown)",c-Jun phosphorylation at Ser-63 (c-Jun),c-Jun phosphorylation at Ser-73 (c-Jun)
leptin: Recombinant human leptin purchased from R&D Systems; major adipose cytokine,did not influence,did not influence,did not influence,stimulated cell growth synergistically,increased living cells,–,–,–,–,–,–,–,–,–
B1,–,–,–,–,–,remarkably suppressed,drastically suppressed,enhanced the doxorubicin suppression,inhibited cell growth in a dose-dependent manner,1 µg/mL,inhibited constitutive STAT3 activation drastically,Neither f- nor g-adiponectin influenced STAT3 activation,augmented c-Jun phosphorylation at Ser-63,stimulated Ser-73 phosphorylation
